Results on 1 substance are retold here after publication PMC6070508.

For assay [1], the target named is 1:1 8D6 Fab/IgE-Fc complex. In words: SPR; IgE-Fc captured on an 8D6 Fab surface (1:1 8D6 Fab/IgE-Fc complex); derCD23 injected at 10 to 0.156 uM; HBS-P with 5 mM CaCl2, 25 °C. In general terms: Surface plasmon resonance follows binding to a sensor surface in real time, without labels.
For assay [2], the target named is 2:1 8D6 Fab/IgE-Fc complex. In words: SPR; IgE-Fc captured on an 8D6 Fab surface, then saturated with 100 nM 8D6 Fab (2:1 8D6 Fab/IgE-Fc complex); derCD23 injected at 10 to 0.156 uM; HBS-P with 5 mM CaCl2, 25 °C.
2:1 8D6 Fab/IgE-Fc complex, sequence (heavy, as listed by the source, chain 1 of 2): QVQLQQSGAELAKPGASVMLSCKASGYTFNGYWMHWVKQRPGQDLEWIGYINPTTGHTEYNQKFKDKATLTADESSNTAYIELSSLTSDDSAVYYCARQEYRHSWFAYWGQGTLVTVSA
2:1 8D6 Fab/IgE-Fc complex, sequence (light, as listed by the source, chain 2 of 2): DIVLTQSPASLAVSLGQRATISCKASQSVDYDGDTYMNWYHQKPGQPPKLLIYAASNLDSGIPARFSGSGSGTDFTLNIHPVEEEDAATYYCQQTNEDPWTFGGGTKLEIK

Usually Kd stands for a measure of binding affinity in units of concentration. A high value points to lower affinity.

1:1 8D6 Fab/IgE-Fc complex, sequence (heavy, as listed by the source, chain 1 of 2): as the sequence (heavy, as listed by the source, chain 1 of 2) above
1:1 8D6 Fab/IgE-Fc complex, sequence (light, as listed by the source, chain 2 of 2): as the sequence (light, as listed by the source, chain 2 of 2) above

Turning to derCD23 (domain or fragment), the Kd in assay [1] and in assay [2] was 1700 nM throughout.
